Here are results for three molecules from US20200223903A1 (NEOMATRIX THERAPEUTICS, published 2020).

B1: P46 (HISKYILRWRPKNSV), fibronectin-derived peptide (peptide)
peptide: HISKYILRWRPKNSV
notes: Found as an elastase digestion product of FNIII1-C and then synthesized; Linear
B2: P12 (PSHISKYILRWRPK), 14-residue peptide of fibronectin's first type III repeat (peptide)
peptide: PSHISKYILRWRPK
notes: Linear P12 as named in the SPR paragraph
B3: cNP8, cyclic HIGKYGLRWRPKGSV, elastase-resistant engineered peptide derived from P46 (peptide)
peptide: HIGKYGLRWRPKGSV
modifications: cyclic: N terminus amino acid bound to the C terminus amino acid
notes: also called cyclic NP8

T1 sequence (P01133 971-1023 limits assumed): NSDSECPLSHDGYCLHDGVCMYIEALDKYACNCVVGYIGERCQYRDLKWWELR

One experiment has as its target T1, epidermal growth factor (UniProt P01133 971-1023).
T1 construct: also called EGF
The experiment is described as follows: SPR (Biacore T200), real time interaction of peptide with growth factor. As for the experimental part: (§1) To study the binding activities of these peptides, real time interactions of P12, P46, and cNP8 with growth factors were determined by plasmon surface resonance (Biacore T200).
As to B1, the binding result is listed as “no binding”.

On to B2, for which the binding result is given as “no binding”.

Turning to B3, the binding result was “no binding”.

The target in another experiment is T2, insulin-like growth factor-1 (UniProt P05019 49-118).
T2 construct: also called IGF-1
T2 sequence (P05019 49-118 limits assumed): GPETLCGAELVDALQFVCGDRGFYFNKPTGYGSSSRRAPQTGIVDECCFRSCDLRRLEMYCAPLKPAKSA
Described as above. As for the experimental part: as §1
B1: the binding result was “no binding”.

Take B2: the binding result is given as “no binding”.

For B3, the binding result is listed as “no binding”.
